According to patent US5534418:

Test system: T3 receptor (thyroid hormone receptor, GC2 pituitary cell nuclear extract) (Rattus norvegicus)
Test: pulldown
Conditions: equilibrium binding constant printed as 1.4x10^-9 M, ABCD assay, poly(dI-dC), 22 C, data not shown

G209-146 rat GH enhancer probe
Kd: 1.4 nM
